Patent publication US20150210998A1
pKd, pKi: −log10 of the molar value. Each block holds one substance with its values, some of them ahead of it.

Legend:
[1] = target: His6-E6AP ligase (full-length, baculovirus-expressed) (human) (UniProt Q05086); experiment: non-competitive inhibition with respect to [UbcH7]o of E6AP chain formation
[2] = target: His6-E6AP ligase (full-length, baculovirus-expressed) (human) (UniProt Q05086); experiment: concentration dependence of inhibition of E6AP-catalyzed polyubiquitin chain formation
[3] = target: His6-E6AP ligase (full-length, baculovirus-expressed) (human) (UniProt Q05086); experiment: non-competitive inhibition with respect to [UbcH7]o of His6-E6AP chain formation
[4] = target: GST-E6AP ligase (wild-type, bacterially expressed fusion protein) (human) (UniProt Q05086); experiment: inhibition of GST-E6AP-catalyzed 125I-polyubiquitin chain formation
[5] = target: GST-E6AP ligase (wild-type, bacterially expressed fusion protein) (human) (UniProt Q05086); experiment: inhibition of GST-E6AP-catalyzed 125I-polyubiquitin chain formation, nonlinear hyperbolic regression
[6] = target: GST-E6AP ligase (wild-type, bacterially expressed fusion protein) (human) (UniProt Q05086); experiment: calculated from the Ki of inhibition of chain formation
[7] = target: His6-E6AP ligase (full-length, baculovirus-expressed) (human) (UniProt Q05086); experiment: activation kinetics of His6-E6AP-catalyzed 125I-polyubiquitin chain formation (non-essential activator, double reciprocal plot)
[8] = target: His6-E6AP ligase (full-length, baculovirus-expressed) (human) (UniProt Q05086); experiment: cell-based or functional assay
[9] = target: GST-E6APY533A (human) (UniProt Q05086); experiment: cell-based or functional assay
Sequence of GST-E6APY533A (human) (Q05086 other isoform, or with tags, fused parts or gaps): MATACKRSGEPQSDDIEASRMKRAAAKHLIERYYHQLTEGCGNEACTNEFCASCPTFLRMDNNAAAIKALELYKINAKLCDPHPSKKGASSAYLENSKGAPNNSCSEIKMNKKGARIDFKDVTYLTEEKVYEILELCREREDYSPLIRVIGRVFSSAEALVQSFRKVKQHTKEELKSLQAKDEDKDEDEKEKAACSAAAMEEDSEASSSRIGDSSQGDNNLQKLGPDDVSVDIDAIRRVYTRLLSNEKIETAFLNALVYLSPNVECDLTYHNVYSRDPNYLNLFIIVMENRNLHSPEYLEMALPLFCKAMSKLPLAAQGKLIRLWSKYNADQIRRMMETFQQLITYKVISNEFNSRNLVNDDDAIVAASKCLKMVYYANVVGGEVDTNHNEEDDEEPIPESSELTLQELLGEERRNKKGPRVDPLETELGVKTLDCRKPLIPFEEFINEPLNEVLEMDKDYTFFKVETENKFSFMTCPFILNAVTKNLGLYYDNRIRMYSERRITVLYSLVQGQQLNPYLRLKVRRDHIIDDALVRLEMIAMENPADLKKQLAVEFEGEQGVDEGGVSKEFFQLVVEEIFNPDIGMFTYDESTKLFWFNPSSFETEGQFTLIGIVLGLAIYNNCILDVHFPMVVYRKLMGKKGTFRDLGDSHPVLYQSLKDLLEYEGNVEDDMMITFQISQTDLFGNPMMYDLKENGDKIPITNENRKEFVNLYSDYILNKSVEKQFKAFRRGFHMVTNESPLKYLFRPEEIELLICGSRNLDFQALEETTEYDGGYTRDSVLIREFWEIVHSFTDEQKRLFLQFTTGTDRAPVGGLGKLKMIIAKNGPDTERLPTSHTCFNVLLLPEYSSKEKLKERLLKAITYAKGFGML

[10] = target: GST-E6APR626A (human) (UniProt Q05086); experiment: cell-based or functional assay
Sequence of GST-E6APR626A (human) (Q05086 other isoform, or with tags, fused parts or gaps): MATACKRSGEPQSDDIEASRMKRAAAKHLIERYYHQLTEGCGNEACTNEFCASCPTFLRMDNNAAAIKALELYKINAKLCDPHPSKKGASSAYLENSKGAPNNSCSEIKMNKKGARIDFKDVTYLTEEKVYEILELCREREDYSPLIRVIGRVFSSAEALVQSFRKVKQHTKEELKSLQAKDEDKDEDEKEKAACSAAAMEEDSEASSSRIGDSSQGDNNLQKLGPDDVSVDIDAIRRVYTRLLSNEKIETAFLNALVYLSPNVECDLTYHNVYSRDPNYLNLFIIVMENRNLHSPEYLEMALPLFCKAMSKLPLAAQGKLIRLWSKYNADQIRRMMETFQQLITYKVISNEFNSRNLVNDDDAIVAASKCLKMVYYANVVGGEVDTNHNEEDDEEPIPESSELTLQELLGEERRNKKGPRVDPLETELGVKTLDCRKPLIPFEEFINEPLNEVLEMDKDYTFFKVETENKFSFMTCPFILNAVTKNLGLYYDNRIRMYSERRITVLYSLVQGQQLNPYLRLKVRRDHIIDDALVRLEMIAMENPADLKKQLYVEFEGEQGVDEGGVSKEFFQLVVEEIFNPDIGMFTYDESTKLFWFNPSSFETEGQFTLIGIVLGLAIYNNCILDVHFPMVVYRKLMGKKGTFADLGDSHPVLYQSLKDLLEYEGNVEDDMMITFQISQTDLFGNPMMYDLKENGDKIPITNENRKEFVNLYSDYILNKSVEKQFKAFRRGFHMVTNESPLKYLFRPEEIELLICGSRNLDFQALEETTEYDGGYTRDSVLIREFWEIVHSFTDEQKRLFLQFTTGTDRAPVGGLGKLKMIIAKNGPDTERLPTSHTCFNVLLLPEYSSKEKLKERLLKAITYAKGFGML

Sequence of E6AP-HectC820A (thrombin-processed) (Q05086 473-875 C843A limits assumed): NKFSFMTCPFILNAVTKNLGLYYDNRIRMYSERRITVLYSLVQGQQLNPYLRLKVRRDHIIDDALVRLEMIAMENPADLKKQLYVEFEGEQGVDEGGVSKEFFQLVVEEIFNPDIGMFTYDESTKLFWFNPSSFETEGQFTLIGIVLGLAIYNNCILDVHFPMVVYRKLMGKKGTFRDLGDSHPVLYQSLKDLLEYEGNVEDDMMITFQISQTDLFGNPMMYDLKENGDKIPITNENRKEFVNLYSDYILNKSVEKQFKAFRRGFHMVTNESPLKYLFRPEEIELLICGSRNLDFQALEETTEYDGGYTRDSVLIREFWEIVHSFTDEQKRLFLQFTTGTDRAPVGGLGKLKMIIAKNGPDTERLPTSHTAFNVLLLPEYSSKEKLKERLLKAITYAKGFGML
Sequence of GST-E6AP-HectC820A (Q05086 473-875 C843A): as the sequence (Q05086 473-875 C843A limits assumed) above

Substance: E6(HPV16)Ct C-terminal domain (from UniProt P03126 89-158)
pKi [1]: 5.40

Substance: E6(HPV16)Δ91 N-terminal domain (from UniProt P03126 1-91)
pKi [2]: 5.40
pKi [3]: 5.22

pKi [4]: 4.57
Substance: E6AP-HectC820A (thrombin-processed) (from UniProt Q05086 450-852)

pKi [5]: 4.72
ΔGbinding [6]: -6.4 kcal/mol
Substance: E6APΔ495 (thrombin-processed) (from UniProt Q05086 1-495)

pKi [4]: 4.51
Substance: GST-E6AP-HectC820A (from UniProt Q05086 450-852)

pKi [5]: 4.92
ΔGbinding [6]: -6.7 kcal/mol
Substance: GST-E6APΔ495 (from UniProt Q05086 1-495)

Substance: HPV16 E6 protein (recombinant, full-length) (from UniProt P03126 1-158)
pKd [7]: 8.82
stimulation in E6AP ligase activity at saturating E6 protein [8]: 14 fold
increase in rate of 125I-polyubiquitin chain formation with 20 nM E6 [9]: 8 fold
increase in rate of 125I-polyubiquitin chain formation with 20 nM E6 [10]: 13 fold
